target: FGFR4 ectodomain (Homo sapiens, UniProt P22455); test: AVEXIS normalised luminescence

| Binder | binding score |
| --- | --- |
| 34 (protein, bait human Fc-tagged dimer) TKKKVSVSEINFDSAVDDVQWCGNNHMTVLVKTVKGRLYRSSDGGKIWTNIAGNLADKENNKADPSSNHMNEMTTVDLIMVNSVNKNIVLIIGNQKNHYISEDSGETFRLLNYQNKINFWQFHSTKTHWALVSSWTEACYSNDDNSGECMQTLSLTKDLGRTFQLIDIYVVQFNWGDKESHLEDTIYYTRHKNRNGHQQRFSGWSKDVDFVATHNFGKSVDVLVKQGNKFLISNGYIFVAKLNDVIKQTVNMMVSTDGGKTFNKANLPENIHEKSYTVLDTSEGSIMLHVNHGTSSEKINTGNVYISDASGLNYALSLPNNIRTSSGECEFDRVLSLDGVYIANFLDVNNEIKDEDLRFQNFKSAIEEDIAPFETNTEKRKKQYNKGKNEDAVRTVISFNKGGEWSYLKAPKVDSRGNKYECGDNCYLHLHGITNYHQYAPFYSIENAVGIIMGTGNVGSHLRYESDEVNTFLSRDGGVTWIEAHKGPYIYEYGDYGGLIVMADDLRKTNQIVFSWNEGQSWFDFELGQFSIDVDNIVAEPNSASVEFLVYGTRNDVGVLYHLDFNALGQPLCKGLWAADSVSSDYETWSPTSGNFNDKCILGRKITYTRRKQTSECFNGKDLKRTVDKKPCECTPEDYECETGFTRKIGSYECKPNDPTLTIEGCTSSSYFYANAYRKVPGDICVNGWVPEKVPVPCPSYAPFNKAAK | 0.648 |
| 66 (protein, bait human Fc-tagged dimer) KIISCVIQKNPILHLWKIYSFQKCPHNYYCEQESLKKKKCPPNSIKTIYDGTINDCLCLPGYYLKGNIQTCIPCEKGSYKNTISNDACIKCPINFATLFETSKSVYDCVCRKGYYFSWNTNIDTNDIEKKNIYNNNINSIYRNKNEIKLIKELEEEYAFNVEKKRKNKHKFILHKKLNNRYRENIHKKQISLKRKIKFLNEQKEINNHLNFLHVNEILNIAFFNDNQNYIYKNKNKQENDANIEINPVSKQTSLHSNNIANKYMRNNFLQINEKLYINNANNNYNEYIHKAQCTKCPRKMFCPGYWLENYENEIHHPPIYCPKGSLILGTTIESTDIHKCICRKGYSINLAIKPNRNKNVNVNDNDNGNNNNNANNNNNNANGNSATLNNNNNMCVMCKEGYYKDVIDNSVCAGLCIEFSTSFKGSISKKQCFCTVGKYMIQDEKDENKCINCAKGSICIGGFKFKSLRELIKNQYYINLNIYDHSIPLPKKGYFATFQINHEDFKWKPLNSLHIEINNYEKGNIIITDKIILNVFHKKLHLINIGEKNKYDQADQGIYIKKNLNNNAFIHNNNNIKYIVEESKHLRDRTMANIPNEPILVNEKLEPIIYKNNFLMIDRIPDFHLCPISNRCMGTSSNLCFKGSEGYLCNNCANSYDVIHFRSQCIKCRKKKTEM | 0.776 |
| 80 (protein, bait human Fc-tagged dimer) INPATLIQNHLYMYQTNNAINEENIYNMKKFSKLPIAENTRNIRHSTNDLYYEHSLNLEKPNEHFTLHNIKLICQQIYHNQPNQLNLRILAVLLSTSYKQENIANIFQNLCNNGLSCLFTIQLSKNKAFVDQNKIVHLKIIDTDDLKRNKNNNIRHKITVYYICEDLKYKNQKQQESNEFKYVFNYEQLAFLKCENYLTVQVEKLVGINYNKEFHNLNPEYISFYCSQRVICNTHIEDLYKEDDKKRKNYIFYELTYRCVPPKVCSFCGNNAACKLEKLYNKEKEITQFYNNVEYNDAGVFDRLLLNKEEEEERNKASFVANLEYNAINYDIDDMITVGSNTYHILEICKCSKDYVQEGSSCVKKEKDKIYIRYAKK | 1.04 |
| 15 (protein, bait human Fc-tagged dimer) MAFFSIFIILNFFMLSLTSSLGNGFLHSSITFSNDFCKGMNLHFLISAEEIDSKFFLNKMLLLILGGSSYMRYSKENYFSVSIYDKKLVYKNIKKIENIQGASYYEQLQSAFKKHIKPSARRTNLYESLKEYYEKYIIGNKNIKKSKNIIIIVKKFTSDDLSEYHENLNRYIKEIRSKDVGIYFFSDDSIYSKNIILNIAESGYNMEVQYPIAHFVSESYRANDLFGVKKFCYQLLHGATCKSYNEWSEWSGPCEFERRQRIIPLKITNIESTNFRSHYDPSCRNVFDYSMSIKEDFRVNCKNSIYECRGICDKGYKFKPYAKSNEIVESYEECNDLPPCTRDQRKNGDHTLYADVILNSLLSESSIQQIRDRDDRALIEKDMP | 0.902 |
